Tests used:
[1] = target: T1, leucyl oligopeptide of SEQ ID NO: 2
T1 chain: LFPTEPS

[2] = target: T2, methionyl oligopeptide of SEQ ID NO: 1 (Met-Phe-Pro-Thr-Glu-Pro-Ser)
T2 chain: MFPTEPS

B1: Aeromonas proteolytica (Vibrio proteolytica) aminopeptidase (protein)
chain: MPPITQQATVTAWLPQVDASQITGTISSLESFTNRFYTTTSGAQASDWIASEWQALSASLPNASVKQVSHSGYNQKSVVMTITGSEAPDEWIVIGGHLDSTIGSHTNEQSVAPGADDDASGIAAVTEVIRVLSENNFQPKRSIAFMAYAAEEVGLRGSQDLANQYKSEGKNVVSALQLDMTNYKGSAQDVVFITDYTDSNFTQYLTQLMDEYLPSLTYGFDTCGYACSDHASWHNAGYPAAMPFESKFNDYNPRIHTTQDTLANSDPTGSHAKKFTQLGLAYAIEMGSATGDTPTPGNQ
B1 was tested, and the Kcat/Km [1] was 211000 M⁻¹ s⁻¹, the Km [1] was 336 µM and the kcat [1] was 70.3 s⁻¹. The Kcat/Km [2] was 3760 M⁻¹ s⁻¹, the Km [2] was 956 µM and the kcat [2] was 3.23 s⁻¹.

From patent US6428997
